The test system of series [1] is HeLa Kyoto. As to the kind of experiment: solubility in G1/S (NP-40 vs SDS abundance) (log2 ratio); higher = more soluble. The conditions noted are these: cell cycle stage: G1/S.
The subject of series [2] is HeLa Kyoto. As to the kind of experiment: melting temperature (median over replicates), in situ; higher = more thermally stable.
In series [3] the test system is HeLa Kyoto. As to the kind of experiment: solubility change mitosis vs G1/S (difference of NP-40 vs SDS log2 ratios) (log2 ratio difference); higher = more soluble in mitosis.
Series [4] relates to HeLa Kyoto. As to the kind of experiment: thermal stability score vs G1/S (z-score of summed log2 fold changes over temperatures); higher = more thermally stable than in G1/S.
The mark [5] stands for this setting: cell cycle stage: early G1 (4.5 h after nocodazole release).
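For melting temperature (median over replicates), in situ in this document: HeLa Kyoto cells synchronized by double thymidine or nocodazole block, proteins quantified by TMT10plex mass spectrometry, three independent biological replicates.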
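For solubility change mitosis vs G1/S (difference of NP-40 vs SDS log2 ratios) in this document: synchronized HeLa Kyoto cells (double thymidine block for G1/S, nocodazole release for mitosis), protein amounts in NP-40 versus SDS lysates quantified by mass spectrometry, three biological replicates.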
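For solubility in G1/S (NP-40 vs SDS abundance) in this document: HeLa Kyoto cells arrested at G1/S by double thymidine block, proteins quantified by TMT10plex mass spectrometry in mild NP-40 versus SDS extracts, three biological replicates.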
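For thermal stability score vs G1/S (z-score of summed log2 fold changes over temperatures) in this document: synchronized HeLa Kyoto cells, proteins quantified by TMT10plex mass spectrometry, three biological replicates, mitosis taken 0.5 h after nocodazole release, G1/S directly after double thymidine block.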

Take “MNSIKNVPARVLSRRPGHSLEAEREQFDKTQAISISKAINTQEAPVKEKHARRIILGTHHEKGAFTFWSYAIGLPLPSSSILSWKFCHVLHKVLRDGHPNVLHDCQRYRSNIREIGDLWGHLHDRYGQLVNVYTKLLLTKISFHLKHPQFPAGLEVTDEVLEKAAGTDVNNIFQLTVEMFDYMDCELKLSESVFRQLNTAIAVSQMSSGQCRLAPLIQVIQDCSHLYHYTVKLLFKLHSCLPADTLQGHRDRFHEQFHSLRNFFRRASDMLYFKRLIQIPRLPEGPPNFLRASALAEHIKPVVVIPEEAPEDEEPENLIEISTGPPAGEPVVVADLFDQTFGPPNGSVKDDRDLQIESLKREVEMLRSELEKIKLEAQRYIAQLKSQVNALEGELEEQRKQKQKALVDNEQLRHELAQLRAAQLEGERSQGLREEAERKASATEARYNKLKEKHSELVHVHAELLRKNADTAKQLTVTQQSQEEVARVKEQLAFQVEQVKRESELKLEEKSDQLEKLKRELEAKAGELARAQEALSHTEQSKSELSSRLDTLSAEKDALSGAVRQREADLLAAQSLVRETEAALSREQQRSSQEQGELQGRLAERESQEQGLRQRLLDEQFAVLRGAAAEAAGILQDAVSKLDDPLHLRCTSSPDYLVSRAQEALDAVSTLEEGHAQYLTSLADASALVAALTRFSHLAADTIINGGATSHLAPTDPADRLIDTCRECGARALELMGQLQDQQALRHMQASLVRTPLQGILQLGQELKPKSLDVRQEELGAVVDKEMAATSAAIEDAVRRIEDMMNQARHASSGVKLEVNERILNSCTDLMKAIRLLVTTSTSLQKEIVESGRGAATQQEFYAKNSRWTEGLISASKAVGWGATQLVEAADKVVLHTGKYEELIVCSHEIAASTAQLVAASKVKANKHSPHLSRLQECSRTVNERAANVVASTKSGQEQIEDRDTMDFSGLSLIKLKKQEMETQVRVLELEKTLEAERMRLGELRKQHYVLAGASGSPGEEVAIRPSTAPRSVTTKKPPLAQKPSVAPRQDHQLDKKDGIYPAQLVNY [HIP1R]”: the “solubility in G1/S (log2)” value in the series with HeLa Kyoto [1] is -0.0581. In addition, the melting temperature in the series on HeLa Kyoto [2] (cell cycle stage: G1/S) turned out to be 50 °C; with HeLa Kyoto [2] (cell cycle stage: mitosis) it was 49.5 °C. Moreover, in the series on HeLa Kyoto [3], the “solubility change mitosis (log2)” value is -0.0177. The thermal stability score in the series with HeLa Kyoto [4] (setting [5]) was -0.263; in the series with HeLa Kyoto [4] (cell cycle stage: mitosis), 0.371.

With “MAGYKPVAIQTYPILGEKITQDTLYWNNYKTPVQIKEFGAVSKVDFSPQPPYNYAVTASSRIHIYGRYSQEPIKTFSRFKDTAYCATFRQDGRLLVAGSEDGGVQLFDISGRAPLRQFEGHTKAVHTVDFTADKYHVVSGADDYTVKLWDIPNSKEILTFKEHSDYVRCGCASKLNPDLFITGSYDHTVKMFDARTSESVLSVEHGQPVESVLLFPSGGLLVSAGGRYVKVWDMLKGGQLLVSLKNHHKTVTCLCLSSSGQRLLSGSLDRKVKVYSTTSYKVVHSFDYAASILSLALAHEDETIVVGMTNGILSVKHRKSEAKKESLPRRRRPAYRTFIKGKNYMKQRDDILINRPAKKHLELYDRDLKHFRISKALDRVLDPTCTIKTPEITVSIIKELNRRGVLANALAGRDEKEISHVLNFLIRNLSQPRFAPVLINAAEIIIDIYLPVIGQSPVVDKKFLLLQGLVEKEIDYQRELLETLGMMDMLFATMRRKEGTSVLEHTSDGFPENKKIES [UTP15]”, the “solubility in G1/S (log2)” value in the series on HeLa Kyoto [1] is -1.23. The values for the melting temperature in the series on HeLa Kyoto [2] (cell cycle stage: G1/S) and with HeLa Kyoto [2] (cell cycle stage: mitosis) were 52.6 °C and 50.9 °C, respectively. Further, the “solubility change mitosis (log2)” value with HeLa Kyoto [3] was found to be 0.558. Besides, the thermal stability score with HeLa Kyoto [4] (setting [5]) was -0.279; with HeLa Kyoto [4] (cell cycle stage: mitosis), -3.5.

As to “MKAVVQRVTRASVTVGGEQISAIGRGICVLLGISLEDTQKELEHMVRKILNLRVFEDESGKHWSKSVMDKQYEILCVSQFTLQCVLKGNKPDFHLAMPTEQAEGFYNSFLEQLRKTYRPELIKDGKFGAYMQVHIQNDGPVTIELESPAPGTATSDPKQLSKLEKQQQRKEKTRAKGPSESSKERNTPRKEDRSASSGAEGDVSSEREP [DTD1]”, the “solubility in G1/S (log2)” value in the series with HeLa Kyoto [1] worked out at 0.119. Also, the figures for the melting temperature in the series on HeLa Kyoto [2] (cell cycle stage: G1/S) and in the series on HeLa Kyoto [2] (cell cycle stage: mitosis) were 58.3 °C and 57.5 °C, respectively. For the same substance, the “solubility change mitosis (log2)” value in the series with HeLa Kyoto [3] stood at 0.00349. In addition, the thermal stability score was found to be 2.15 in the series with HeLa Kyoto [4] (setting [5]) and 0.509 in the series with HeLa Kyoto [4] (cell cycle stage: mitosis).

For “MDRPLSSSAEAEEELEWQVASRRRKAWAKCRSSWQASETEDLSTEATTQDEEEDEEEDLPGAQLPAAGGRGNVPNEKIAIWLKDCRTPLGASLDEQSSSTLKGVLVRNGGSFEDDLSLGAEANHLHESDAQIENCNNILAKERRLQFHQKGRSMNSTGSGKSSGTVSSVSELLELYEEDPEEILYNLGFGRDEPDIASKIPSRFFNSSSFAKGIDIKVFLSAQMQRMEVENPNYALTSRFRQIEVLTTVANAFSSLYSQVSGTPLQRIGSMSSVTSNKETDPPPPLTRSNTANRLMKTLSKLNLCVDKTEKGESSSPSPSAEKGKILNVSVIEESGNKNDQKSQKIMKKKESSSMLATVKEEVSGSSAAVTENADSDRISDEANSNFNQGTENEQSKETQSHESKLGEESGIVESKLDSDFNISSHSELENSSELKSVHISTPEKEPCAPLTIPSIRNIMTQQKDSFEMEEVQSTEGEAPHVPATYQLGLTKSKRDHLLRTASQHSDSSGFAEDSTDCLSLNHLQVQESLQAMGSSADSCDSETTVTSLGEDLATPTAQDQPYFNESEEESLVPLQKGLEKAAAVADKRKSGSQDFPQCNTIENTGTKQSTCSPGDHIIEITEVEEDLFPAETVELLREASAESDVGKSSESEFTQYTTHHILKSLASIEAKCSDMSSENTTGPPSSMDRVNTALQRAQMKVCSLSNQRMGRSLLKSKDLLKQRYLFAKAGYPLRRSQSLPTTLLSPVRVVSSVNVRLSPGKETRCSPPSFTYKYTPEEEQELEKRVMEHDGQSLVKSTIFISPSSVKKEEAPQSEAPRVEECHHGRTPTCSRLAPPPMSQSTCSLHSIHSEWQERPLCEHTRTLSTHSVPNISGATCSAFASPFGCPYSHRHATYPYRVCSVNPPSAIEMQLRRVLHDIRNSLQNLSQYPMMRGPDPAAAPYSTQKSSVLPLYENTFQELQVMRRSLNLFRTQMMDLELAMLRQQTMVYHHMTEEERFEVDQLQGLRNSVRMELQDLELQLEERLLGLEEQLRAVRMPSPFRSSALMGMCGSRSADNLSCPSPLNVMEPVTELMQEQSYLKSELGLGLGEMGFEIPPGESSESVFSQATSESSSVCSGPSHANRRTGVPSTASVGKSKTPLVARKKVFRASVALTPTAPSRTGSVQTPPDLESSEEVDAAEGAPEVVGPKSEVEEGHGKLPSMPAAEEMHKNVEQDELQQVIREIKESIVGEIRREIVSGLLAAVSSSKASNSKQDYH [SSFA2]”, the “solubility in G1/S (log2)” value in the series with HeLa Kyoto [1] was -0.81. Moreover, the melting temperature in the series with HeLa Kyoto [2] (cell cycle stage: G1/S) was found to be 50.8 °C; with HeLa Kyoto [2] (cell cycle stage: mitosis), 49.8 °C. Moreover, the “solubility change mitosis (log2)” value with HeLa Kyoto [3] was determined as 0.802. Besides, the thermal stability score in the series with HeLa Kyoto [4] (setting [5]) is -1.42; in the series with HeLa Kyoto [4] (cell cycle stage: mitosis), -0.947.

For the substance USP34, in the series with HeLa Kyoto [1], the “solubility in G1/S (log2)” value was -0.314. Besides, the melting temperature with HeLa Kyoto [2] (cell cycle stage: G1/S) was 49.5 °C; in the series on HeLa Kyoto [2] (cell cycle stage: mitosis) it was 50.2 °C. Further, the “solubility change mitosis (log2)” value in the series on HeLa Kyoto [3] was -0.0816. The figures for the thermal stability score in the series with HeLa Kyoto [4] (setting [5]) and with HeLa Kyoto [4] (cell cycle stage: mitosis) were 0.493 and 1.73, respectively.

For the origin of these results see the supplement of paper PMC5998384.
